# Data published in the nanobody polyreactivity screen of Harvey et al. (2022).
# Assay: yeast display, Sf9 membrane polyspecificity reagent, FACS + sequencing; frameworks hold sequencing errors
# Summary of the method: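 In a synthetic yeast display library (Saccharomyces cerevisiae BJ5465), nanobody expression was induced with galactose for 36–48 hours. FACS gates were set low and high (top ~1%) using anti-HA fluorescence for expression and streptavidin fluorescence for binding of the Sf9 membrane reagent. Each polyreactivity label is drawn from the gate of origin.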
row,Sequence,polyreactivity (PSR sort gate)
1,QVQLVETGGGLVQAGGSLRLSCAASGIIFATYAMGWYRQAPGKEMELVAAISRRGGYTYYADSVKGRFTISRDNANNTVYLQMNSLKPEDSAVYYCAKSNTLASVAHDYWGQGTQVTVTS,high polyreactivity
2,QVQLVETGGGLVQAGGSLRLSCAASGIIFPFYAMGWYRQAPGKERELVAAITSDGNTNYADSVKGRFTISRDNAKNTVYLQMNSLKPEDTAVYYCNAETQYGVLSWHSTRHDYWGQGTQVTVSS,low polyreactivity
3,QVQLVETGGGLVQAGGSLRLSCAASGITFGRNTMGWYRQAPGKERELVAAIDSGANTYADSVKGRFTISRDNAKNTVYLQMNSLKPEDTAVYYCAVDGGEFSSYGYWGQATQVTVSS,low polyreactivity
4,QVQLVETGGGLVQAGGSLRLSCAASGITFPYYAMGWYRQAPGKERELVDAITIRSGRTYYADSVKGRFTISRDNAKNTFYLQMNSLIPEDTAVYYCAARLSNTYGYWGQGTQVTVSS,high polyreactivity
5,QVQLVETGGGLVQAGGSLRLSCAASGITFYEYALGWYRQAAGKERELVAAISTSGGNTYYAESVKGRFTISRDNAKTTVYLQMNSLKPEDTAVFYCAAQGTASSYSGGDYWGQGTQVTVSS,low polyreactivity
6,QVQLVETGGGLVQAGGSLRLSCAASGNTFHPYAMGWYRQSPGKERELVAAITKSVGSTYYADSVKGRFTLSRDNAKNTVYLQMNSLKPEDTAVFYCARDSLQVFYPYASDDSWGQGTQVTVSS,low polyreactivity
7,QVQLVETGGGLVQAGGSLRLSCAASGRIFGDNAMGWYRQAPGKEREFVATINGSGGSTYYADSVKGRFTISRDNAKNTVYLKMNRLKPEDTAVYYCFVQQNYGYDYWGQGTQVTVSS,low polyreactivity
8,QVQLVETGGGLVQAGGSLRLSCAASGRIFGRYAMGWSRQAPGKERELVASISRGGSTNYADSVKGRFTISRDNAKNTVYLQMNSLKPEDTAVYYCAKSGGVGGADRVGSWGQGTQVTVSS,low polyreactivity
9,QVQLVETGGGLVQAGGSLRLSCAASGRIFGVNARGWYRQAPGKERELVAAIFSGGSTYYADSVKGRFTISRDNAKNTVYVEMNSLKPEDTAVYYCAARFARYDWSMYYWGQGTQVTVSS,low polyreactivity
10,QVQLVETGGGLVQAGGSLRLSCAASGRIFSPYALGWYRQAPGKERELVAAISYDDGITYYADSVKGRFTISRDNAKNTVYLQMNSLKPEDTAVYYCAADSVTRPAGDYWGQGTQVTVSS,low polyreactivity
11,QVQLVETGGGLVQAGGSLRLSCAASGRIFSVYAMGWYRQAPGKERDLVAGITSSGGSTYYADSVKGRFTISRDNAKNTVYLQMISLKPEDTAGYYCATRQVSRLYPYRYNYWGQGTQVTVSS,high polyreactivity
12,QVQLVETGGGLVQAGGSLRLSCAASGRTFAGNAMGWYRQAPGKERELVAGISSGGSTNYADSVKGRFTISRDNAKNTVYLQMNSLNPEDTAVYYCAKRYFRKGYPLFHYAYGYWGQVTQVTVSS,high polyreactivity
13,QVQLVETGGGLVQAGGSLRLSCAASGRTFAKYAMGWYRQAPGKERDLVASISGRGTNTYYADSVKGRFTISRDNAKNTVYLQMNSLKPEDTAVYYCAATYVYPYRDSHYFYWGQGTQVTVSS,high polyreactivity
14,QVQLVETGGGLVQAGGSLRLSCAASGRTFGNYAMGWYRQAPGKERELVAAITSAGRTYYADSVKGRFTISRDNAKNTVYLQMNSLKPEDTAVYYCAVSVIYWSGSQVSVEYYYWGQGTQVTVSS,low polyreactivity
15,QVQLVETGGGLVQAGGSLRLSCAASGRTFGPYVMGWYRQAPGKERELVAGITSGGSTNYADSVKGRFTISRDNAKNTVYLQMNSLKPEDTAVYYCNADYVIYFGLYEYWGQGTQVTVSS,low polyreactivity
16,QVQLVETGGGLVQAGGSLRLSCAASGRTFLYYAMGWYRPEPGKERELDAAIRRGSSTYYADSVKGRFTISRDKAKNTVYLQMNSLKPEDTAVYYCAARGRYRIGQGRYGKRYDYWGQGTQVTVSS,high polyreactivity
17,QVQLVETGGGLVQAGGSLRLSCAASGRTFRWYAMGWYRQAPGKERELVADISSVGSTDYADSVKGRFTISRDNAKNTVYLQMNSLKPEDTAVYYCAADFSPRRYHNRSFGYWGQGTQVTVSS,low polyreactivity
18,QVQLVETGGGLVQAGGSLRLSCAASGRTFYFNTMGWYRQAPGKERELVAAISSGVNTYYADSVKGRFTISRDNAKNTVYLQMNSLKPEDTAVYYCAASARTYVQSGYWGQGTQVTVSS,high polyreactivity
19,QVQLVETGGGLVQAGGSLRLSCAASGSIFPGNAMGWYRQAPGKERELVAVIDFSGASTYYADSVKGRFTISRDNAKNTVYLQMNSLKPEDTADYWGQGTQVTVSS,low polyreactivity
20,QVQLVETGGGLVQAGGSLRLSCAASGSIFTYYTMGWYRQAPGKERELVAAINGRGHSTYYADSVKGRFTISRDNAKNTVYLHMNSLKPEDTAVYYCARRRQYEYNYWGQGTQVTVSS,high polyreactivity
21,QVQLVETGGGLVQAGGSLRLSCAASGSIFVYYAMRWYRQAPGKERELVAAITIGASTDYADSVKGRFTISRDNAKNTVYLQMISVKPEDTAVYNCAADLYYGDYRTLPKADEYDYWGQGTQVTVSS,low polyreactivity

row,Sequence,polyreactivity (PSR sort gate)
1,QVQLVETGGGLVQAGGSLRLSCAASGSIFWYYAMGWYRQAPGKERELVAAISAYGSSTYYADSVKGRFTISRDNAKNTVYLQMNSLKPEDTAVYYCAATYILYNDWLYHYFPEEYDYWGQGTQVTVSS,low polyreactivity
2,QVQLVETGGGLVQAGGSLRLSCAASGSTFESNTMGWYRQAPGKERELVAAISYSGGRTYYADSVKGRFTISRDNAKNTVYLQMNSLKPEDTAVYYCAARWSVSYQYWGQGSQVTVSS,high polyreactivity
3,QVQLVETGGGLVQAGGSLRLSCAASGSTFPRYAMVWSRQAPGKESEYVAVNWSGGSTYYADSVKGRFTISRDNAKNTVYLQMNSLKPEDTAVYYCAAEYHTLSKYSGYATHDYWGQGTQVTVSS,low polyreactivity
4,QVQLVETGGGLVQAGGSLRLSCAASGSTFSRYPMGWYRQAPGKEWELVAAITGTGGRTYYADSVKGRFTISRDNEKNTVYLLMNSLKPEDTAVYYCAAQRWTVKYNYWGQGTQVTVSS,high polyreactivity
5,QVQLVETGGGLVQAGGSLRLSCAASGSTFVRYTMGWYRQAPGKERELVAAISQRDSRTYYADSVKGRFTISRDNAKNTVYLQMNSLKPEDTAVYYCAARSWWYRSATYNYWGQGTQVTVSS,high polyreactivity
6,QVQLVETGGGLVQAGGSLRLSCAASGYIFGYVMGWYRQAPGKERELVAAITYSSGNTYYADSVKGRFTISRDNAKNTVYLQMNSLKPEDTAVYYCAKQAYYKGRLAYGYWGQGTQVTVSS,high polyreactivity
7,QVQLVETGGGLVQAGGSLRLSCAASGYTFDGYAMGWYRQAPGKERELVAAINSGGGTYYADSVKGRFTISRDNAKNTVYLLMNSQKPEDTAVYYCAAERVYSDMDYWGQGTQVTVSS,low polyreactivity
8,QVQLVETGGGLVQAGGSLRLSCAASVRIFFVYAMGWYRQAPGKERELVAAITYDDGDTFYADSVKGRFTISRDNAKNTVYLQMNSLKPEDTAVYYCAAEGYSYIQSDLDYWGQGTQVTVSS,high polyreactivity
9,QVQLVETGGGLVQAGGSLRLSCAAYGFTFEYNAMGWYRQAPGKERELVAAITTTGSTYYADSVKGRFTISRDNAKNTVYLQMNSLKPEDTAVYYCAADPVWRGYSYQFDYWGQGTQVTVSS,low polyreactivity
10,QVQLVETGGGLVQAGGSLRLSCADSGSIYQKNAMGWYRQPPGKERELVAAITSGGTTYYADSVKGRFTISRDNAKNTVYLQMYSLKPEDTAVYYCAKYHCRLSFSRYPYDYWGQGTQVTVSS,high polyreactivity
11,QVQLVETGGGLVQAGGSLRLSCADSGSTFPGNGMVWSRQAPGKERELVAGISSGGRTYYADSVKGRVTISRDNAKNTVYLQLNRLKPEDTAVYYCATEGDYFAKYDRMDYWGQGTQVTVSS,low polyreactivity
12,QVQLVETGGGLVQAGVSLRLSSAASGITIGKNAMGWYRQEPGKESELVAAITRDGGTNYADSVKGRFTISRDNSKNTVYLQMNRLKPEDTAVYYCAKRAYFYYGRYDYWGQGTQVTVSS,low polyreactivity
13,QVQLVETGGGLVQASGSLRLSSAASGRIFTRYAMGWYRQAHGKERELVPAITRGGSTYYADSVKGRFTISRDNAKNTVYLQMNSLKPEDTAVYYCAADWFGISVVRDPFDHWGQGTQVTVSS,high polyreactivity
14,QVQLVETGGGLVQEGGSLRLSCAASGRTFYSYAMGWYRQAPGKERELVARISSGGSTNYADSVKGRFTISRDNAKNTVYFQMNSLKPEDTAVYYCAAVRHRAMDYWGQGTQVTVSS,low polyreactivity
15,QVQLVETGGGVVQAGGSLRLSCAASGRTFGFNAMGWYIQAPGKERELVASITSTGGRTYYADSVKGLFTISRDNAKNTVYLQMNCLKPEDTAVYYCAAGSRSRAPYYRTIVDTYGYWGQGTQVTVSS,low polyreactivity
16,QVQLVETGGVLVQAGGSLRLSFAASGIIFSISALGGYRQAPGKERELVAAITYSGGRTYYADSVKGRFTISRDTAKNTVYLQMNSLKPEDTAVYYCAADYYYYGSYYPVEYWGQGTQVTVSS,high polyreactivity
17,QVQLVETRGGLVQAGGRLRLSCAASGGIFPVNAMGWYRQAPGKERELVAAISWSVGRTYYADSVKGRFTISRDNAKNTVYLQMISLKREDTAVYYCAAEWFGVYRRYKYDYCGQGTQVTVSS,low polyreactivity
18,QVQLVETVGGLLQAGGSLRLSCPASGSTLYYNTMGWYRQAPGKERELVATISSRGGRTHYADSVKGRFTISRDNAKNTVYLQMNSLKPEDTAVYYCNALPRVVYTVGQSPFYYWGQGTQVTVSS,high polyreactivity
19,QVQLVETVGGLVQAGGSLRLSCAASGSIFTHYAMGWYREAPGKERELVAAITWSGGSTYYADSVKGRFTISRDNAKNTVYLQMNSLIPEDTAVYYCNVAWVGVSLVYGPFEYDYWGQGTQVTVSS,high polyreactivity
20,QVQLVETWGGLVQAGGSLRLSCAASGRNFRTNAMGWYRQAPGKERELVAAITSDGTYYADSVKGRFTISRDNAKNNVYLQMNSVKPEDTAVYYCNVDDRETRDDYWGQGTQVTVSS,low polyreactivity
